Experiments:
[1] = test system: T1, N1-21-ABE8e (Neisseria meningitidis); experiment: cell_activity; settings: E. coli ABE-PPA
T1 sequence: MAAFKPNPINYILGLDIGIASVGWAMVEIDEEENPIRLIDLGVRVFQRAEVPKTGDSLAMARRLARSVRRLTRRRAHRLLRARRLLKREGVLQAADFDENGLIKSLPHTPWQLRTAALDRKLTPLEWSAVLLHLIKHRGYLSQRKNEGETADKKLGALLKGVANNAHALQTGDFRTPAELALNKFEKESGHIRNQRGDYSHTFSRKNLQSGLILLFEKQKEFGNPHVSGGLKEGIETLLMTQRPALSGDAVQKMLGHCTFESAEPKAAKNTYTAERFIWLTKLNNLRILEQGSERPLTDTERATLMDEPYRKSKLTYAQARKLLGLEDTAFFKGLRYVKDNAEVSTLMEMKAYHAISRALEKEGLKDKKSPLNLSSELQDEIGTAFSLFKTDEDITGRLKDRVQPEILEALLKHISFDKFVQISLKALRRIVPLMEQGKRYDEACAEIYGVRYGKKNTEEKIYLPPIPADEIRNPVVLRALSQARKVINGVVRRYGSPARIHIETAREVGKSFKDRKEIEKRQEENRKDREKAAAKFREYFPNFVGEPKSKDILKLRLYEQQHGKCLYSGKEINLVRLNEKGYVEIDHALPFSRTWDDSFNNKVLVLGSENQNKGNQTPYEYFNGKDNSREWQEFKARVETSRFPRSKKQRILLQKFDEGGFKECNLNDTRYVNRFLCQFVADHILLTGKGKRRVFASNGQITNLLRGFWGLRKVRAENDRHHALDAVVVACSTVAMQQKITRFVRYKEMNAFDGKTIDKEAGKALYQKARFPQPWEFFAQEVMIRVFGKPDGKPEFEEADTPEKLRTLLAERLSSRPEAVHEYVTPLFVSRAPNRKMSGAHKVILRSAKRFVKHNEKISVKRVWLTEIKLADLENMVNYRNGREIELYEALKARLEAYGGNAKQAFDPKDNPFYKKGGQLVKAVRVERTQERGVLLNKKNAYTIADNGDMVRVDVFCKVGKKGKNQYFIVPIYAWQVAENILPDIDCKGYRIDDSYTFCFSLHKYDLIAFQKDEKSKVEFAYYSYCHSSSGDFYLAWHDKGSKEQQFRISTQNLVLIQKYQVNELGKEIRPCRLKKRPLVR

[2] = test system: T2, E1-2-ABE8e (Neisseria meningitidis); experiment: cell_activity; settings: PAM N4YNC average, E. coli ABE-PPA; 14% on N4YND
T2 sequence: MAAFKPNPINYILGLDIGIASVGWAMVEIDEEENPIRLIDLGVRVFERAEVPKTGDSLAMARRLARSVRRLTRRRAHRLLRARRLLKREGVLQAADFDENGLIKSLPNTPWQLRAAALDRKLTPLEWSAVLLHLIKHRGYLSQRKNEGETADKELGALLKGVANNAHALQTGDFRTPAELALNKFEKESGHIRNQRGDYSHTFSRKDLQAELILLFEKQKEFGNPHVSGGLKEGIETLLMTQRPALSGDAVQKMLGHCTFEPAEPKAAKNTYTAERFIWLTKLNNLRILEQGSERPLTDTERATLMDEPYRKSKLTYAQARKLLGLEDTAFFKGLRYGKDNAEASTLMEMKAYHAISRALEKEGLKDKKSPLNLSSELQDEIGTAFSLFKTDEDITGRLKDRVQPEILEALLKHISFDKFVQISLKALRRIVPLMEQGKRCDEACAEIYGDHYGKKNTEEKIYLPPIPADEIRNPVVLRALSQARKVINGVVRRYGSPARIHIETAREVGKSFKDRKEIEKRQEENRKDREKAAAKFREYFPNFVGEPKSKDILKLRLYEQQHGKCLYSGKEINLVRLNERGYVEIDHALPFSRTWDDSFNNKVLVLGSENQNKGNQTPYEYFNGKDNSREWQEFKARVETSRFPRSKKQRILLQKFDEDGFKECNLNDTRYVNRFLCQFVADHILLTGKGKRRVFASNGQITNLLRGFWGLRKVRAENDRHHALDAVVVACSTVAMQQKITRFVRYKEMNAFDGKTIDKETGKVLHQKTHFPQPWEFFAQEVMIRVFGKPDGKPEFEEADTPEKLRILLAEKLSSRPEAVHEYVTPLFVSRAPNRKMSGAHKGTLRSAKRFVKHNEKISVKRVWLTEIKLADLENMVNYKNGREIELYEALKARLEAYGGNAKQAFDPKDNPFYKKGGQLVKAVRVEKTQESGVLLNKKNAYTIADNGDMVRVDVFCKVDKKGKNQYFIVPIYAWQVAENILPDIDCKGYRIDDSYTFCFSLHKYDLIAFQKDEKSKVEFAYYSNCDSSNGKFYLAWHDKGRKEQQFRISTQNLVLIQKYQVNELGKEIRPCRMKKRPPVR

AUGGCCCAGACUGAGCACGUGAGGUUGUAGCUCCCUUUCUCAUUUCGGAAACGAAAUGAGAACCGUUGCUACAAUAAGGCCGUCUGAAAAGAUGUGCCGCAACGCUCUGCCCCUUAAAGCUUCUGCUUUAAGGGGCAUCGUUUA / ATGGCCCAGACTGAGCACGTGA / TCACGTGCTCAGTCTGGGCCAT [ABE-PPA sgRNA ; ABE-PPA protospacer library target]
activity (% A-to-G conversion) ([1]; PAM N3CCC (counterselected), virtually eliminated): 4.8 | activity (% A-to-G conversion) ([1]; PAM N3TTG, 64% average on N4GN PAMs): 67 | activity (% A-to-G conversion) [2]: 29
